Measured values as given in paper PMC3521694 (PLoS Pathogens, 2012).

Target: full-length VipD (vacuolar protein sorting inhibitor protein D) (Legionella pneumophila, UniProt Q5ZRP9 1-621)
Experiment: ITC; […]; 25°C; 20 mM Tris-HCl pH 7.5, 100 mM NaCl; iTC200
Conditions: both partners purified

Binder | Kd [nM]
Rab5b(1-190):GDP (domain or fragment, also called wild-type Rab5b(1-190)) MTSRSTARPNGQPQASKICQFKLVLLGESAVGKSSLVLRFVKGQFHEYQESTIGAAFLTQSVCLDDTTVKFEIWDTAGQERYHSLAPMYYRGAQAAIVVYDITNQETFARAKTWVKELQRQASPSIVIALAGNKADLANKRMVEYEEAQAYADDNSLLFMETSAKTAMNVNDLFLAIAKKLPKSEPQNLG | 3150
Rab22a(1-175):GDP (domain or fragment, also called wild-type Rab22a(1-175)) MALRELKVCLLGDTGVGKSSIVWRFVEDSFDPNINPTIGASFMTKTVQYQNELHKFLIWDTAGQERFRALAPMYYRGSAAAIIVYDITKEETFSTLKNWVKELRQHGPPNIVVAIAGNKCDLIDVREVMERDAKDYADSIHAIFVETSAKNAININELFIEISRRIPSTDANLPS | 123
